Test results taken from publication PMC13281839.

Biological target: N‐terminal half of fibrillin‐1, fragment rF90 (S19‐V1527) (UniProt P35555)
Experiment: SPR

Chain of UniProt P35555 (P35555 45-1527): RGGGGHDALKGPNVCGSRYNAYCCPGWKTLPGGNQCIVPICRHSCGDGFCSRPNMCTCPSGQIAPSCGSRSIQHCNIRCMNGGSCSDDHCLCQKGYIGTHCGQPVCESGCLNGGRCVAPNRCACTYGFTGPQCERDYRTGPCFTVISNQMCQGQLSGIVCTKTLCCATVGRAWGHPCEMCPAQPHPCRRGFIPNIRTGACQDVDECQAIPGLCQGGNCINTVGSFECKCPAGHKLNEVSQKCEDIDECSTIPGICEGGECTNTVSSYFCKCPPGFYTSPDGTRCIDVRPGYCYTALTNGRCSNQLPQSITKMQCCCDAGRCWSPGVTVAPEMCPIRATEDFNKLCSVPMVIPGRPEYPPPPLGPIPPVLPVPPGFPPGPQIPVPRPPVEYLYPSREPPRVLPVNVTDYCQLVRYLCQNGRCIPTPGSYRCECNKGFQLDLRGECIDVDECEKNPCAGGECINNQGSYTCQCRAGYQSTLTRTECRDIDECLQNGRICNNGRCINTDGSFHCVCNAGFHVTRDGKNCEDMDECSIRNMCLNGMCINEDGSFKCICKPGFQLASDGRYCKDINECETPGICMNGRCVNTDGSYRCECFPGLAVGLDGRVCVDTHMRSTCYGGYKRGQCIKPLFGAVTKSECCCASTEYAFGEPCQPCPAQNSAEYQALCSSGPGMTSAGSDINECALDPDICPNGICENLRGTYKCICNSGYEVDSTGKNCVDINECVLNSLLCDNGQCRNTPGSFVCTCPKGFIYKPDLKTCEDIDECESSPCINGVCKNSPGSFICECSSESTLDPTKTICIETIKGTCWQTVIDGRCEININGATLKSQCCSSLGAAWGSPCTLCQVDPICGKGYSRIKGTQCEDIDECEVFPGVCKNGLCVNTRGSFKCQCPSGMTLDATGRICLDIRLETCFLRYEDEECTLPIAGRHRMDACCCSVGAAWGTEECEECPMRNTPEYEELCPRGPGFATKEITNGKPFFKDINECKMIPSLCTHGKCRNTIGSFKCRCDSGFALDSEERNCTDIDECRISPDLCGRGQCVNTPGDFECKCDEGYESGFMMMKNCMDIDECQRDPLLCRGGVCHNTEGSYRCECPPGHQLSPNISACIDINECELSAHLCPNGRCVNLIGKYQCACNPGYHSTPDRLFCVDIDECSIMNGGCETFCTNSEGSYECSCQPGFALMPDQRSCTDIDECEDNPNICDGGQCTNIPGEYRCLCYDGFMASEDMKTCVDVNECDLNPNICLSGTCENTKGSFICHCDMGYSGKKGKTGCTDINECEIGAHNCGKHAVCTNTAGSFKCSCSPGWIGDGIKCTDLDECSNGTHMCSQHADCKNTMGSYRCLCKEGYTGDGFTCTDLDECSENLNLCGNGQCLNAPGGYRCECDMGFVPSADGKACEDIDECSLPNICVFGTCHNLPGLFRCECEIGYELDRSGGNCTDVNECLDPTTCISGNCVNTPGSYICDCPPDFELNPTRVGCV

Substance: BMP‐7 CPLX (BMP‐7 growth factor‐prodomain complex) (from UniProt P18075 293-431)
- Kd: 7 nM
